Experimental data taken from patent US12371675B2, “Process and microorganism for synthesis of adipic acid from carboxylic acids” (THE GOVERNING COUNCIL OF THE UNIVERSITY OF TORONTO, priority 2015, dated 2025).

Experiments:
[1] = AR reductase activity, NAD(P)H oxidation at 340 nm; type: biochemical; details: 10 mM, ND = no activity was detected
Experimental: Enzyme activity of purified ARs was measured spectrophotometrically in 96-well plates Reaction mixtures contained 100 mM HEPES buffer (pH 7.5), 0.4 mM NADH/NADPH, 10 mM adipaldehyde or butylaldehyde, and proteins (10 μg for adipaldehyde screen, 2 μg for butyraldehyde screen) in a final volume of 200 μL Reaction mixture for adipaldehyde screening contained 1.8% DMSO. Enzyme reactions were monitored by following the decrease in absorbance at 340 nm (ε340 nm=6,220/M·cm) due to oxidation of NAD(P)H to NAD(P)+.

[2] = OYE hydrogenation activity screen, NADPH oxidation at 340 nm; type: biochemical; details: 1 mM substrate, 0.25 mM NADPH, 2.5 μg protein; cut-off 0.05 U/mg protein; ND = not detected
Experimental: 25 putative OYE genes (Table 1) were cloned based on the Pfam domain of the FMN oxidoreductase family PF00724. Purified OYEs were screened for hydrogenation activity against acrolein, 2-cyclohexn-1-one, cis,cis-muconic acid, trans,trans-muconic acid, and 2-hexendioic acid. Substrate specificity was measured spectrophotometrically in 96-well plates by following incubation for 20 min at room temperature in the anaerobic chamber. Buffers and reagents were also degassed and sparged with Ar. Reaction mixtures contained potassium phosphate (50 mM and pH 7.0), NaCl (10 mM), NADPH (0.25 mM), various substrates (1 mM) and protein (2.5 μg) in a final volume of 200 μL. Enzyme reactions were monitored by following the decrease in absorbance at 340 nm (ε340 nm=6,200/M·cm) as a measure of the conversion of the cofactor NADPH to NADP+.

B1: PA2918: aldehyde reductase (AR) from Pseudomonas aeruginosa (protein)
chain: MVDHSIKGKTVLITGGAKNLGGLIARDLAAHGAKAITIHYNSAASKADADATVAALQAAGAKAVALQGDLTSAAAMEKLFADAIAAVGKPDIAINTVGKVLKKPITEISETEYDEMSAVNSKSAFFFLREAGKHVNDNGKICTLVTSLLGAYTPYYAAYAGTKAPVEHFTRAASKEFGARGISVTAVGPGPMDTPFFYPAEGADAVDYLKNAAALSPFSKTGLTDIDDVVPFIRHLVSEGWWITGQTILINGGFSTK
[1]
  Activity [U/mg protein] Butyraldehyde: 0.137 ± 0.03 U/mg protein

B2: PA1146: aldehyde reductase (AR) from Pseudomonas aeruginosa (protein)
chain: MSDLHYWNYPTDILCGVGALEQLPRRCALAGARRPLLVTDPGMRALEPLRLVRECLERAGIDHDLFHELSSNPSLAEVQGGARRFEAGGHDALIALGGGSALDAAKGIALLSRDPHGLERFEWTQTLRSYPTLADYPPLGLPPLLALPTTAGTGSELGREAVLTDTQLGIKRVVGHRELLAACVFLDPRLTRGLPPALSAATGMDALTHHLEALFSPLYHPMSAGIALEGVRLVRQHLENAVRDGNDLAAREGMLVASASAAVAFQKGLGGVHALAHPLGARHHLHHGLLNAVLLPYVLLANRPAIEADAARLARYLELDEASFDGLLAWILELRARIGIPANLAALGLDGEDAQWVGEQALADLSSSATNALPLDARDYARIYRQAVAGTLA
[1]; 1.8% DMSO
  Activity [U/mg protein] Adipaldehyde: 0.696 ± 0.032 U/mg protein
[1]
  Activity [U/mg protein] Butyraldehyde: 1.68 ± 0.144 U/mg protein

B3: CV_2177: aldehyde reductase (AR) from Chromobacterium violaceum (protein)
chain: MRRLEGKQALITGGTSGIGLETAKQFLAEGAKVAITGRSEAGLAQANEVLGGRALLLKSDAGSLDDQRALPAQLRSHGWSRLDAAYLNAGDVTHLPLADWSEADFDRVMAVNLKGPFFLLQALSPLLANPSSVILCGSVGARIGVPSSSAYAASKAGLLSLARTLSAEWLDRGIRVNGLSPGPTHTPAFGKLGMPEDELPALRDRIRKLVPLGRLGRPEELAKAAVFLASDESSYMLGSELLVDGGVGNV
[1]
  Activity [U/mg protein] Butyraldehyde: 0.151 ± 0.054 U/mg protein

B4: BH2491: aldehyde reductase (AR) from Bacillus halodurans (protein)
chain: MLQGKTAIVTGASRGIGRATAMELARHGANVVVNYAGNKEKAEKVVAEIKELGVEAIAIQADVADSESVQAMVKETIDTFGAVDILVNNAGITRDNLFMRMKEEDWDAVIDTNLKGVFHCSKAVTRPMMKQRFGRIINVSSVVGAIGNAGQANYVAAKAGVIGLTKTLARELANRNITVNAVAPGFIETDMTGELPEDVKAQMLGQIPLARLGQPEEVAKAVRFLASDDASYLTGQTIHVNGGMVM
[1]
  Activity [U/mg protein] Butyraldehyde: 0.108 ± 0.026 U/mg protein

B5: CV3501: OYE protein from Chromobacterium violaceum ATCC 12472 (protein)
chain: MNADKLLTPLTMGAVALSNRVVMAPLTRLRNIEPGDVPGPLAKEYYRQRASAGLIVAEGTHISPTAKGYAGAPGIYSEEQVRAWSEVTGAVHQDGGKIALQLWHTGRISHRSLQPNGDAPVGPSAIQADSRTNIRAADGSLVREQCDTPRALEIEEIEDIIEDYRRAADNARRAGFDMVEIHGAHGYLIDQFLSPAANVRTDQYGGSVENRARFLLEVVDAVVAEWDADHVGIRISPLGIFNGVSNTDQLDMALYLAEQLAKRKLAFLHISEPDWAGGPTLDDGFRAELRQRYPGVIIGAGGYSAEKAETLLKKGFIDAAAFGRSYIANPDLVERLKQNAPLNPPKPDTFYGGGAEGYTDYPTL
[2]
  Activity [U/mg protein] 2-cyclohexen-1-one: 0.07 U/mg protein
